Results as given in patent US20220251222A1 (Johns Hopkins, published 2022).

T1: IL-6R on IL-6-responsive HepG2 cells (UniProt P08887 20-468, limits assumed)
T1 sequence (looked up): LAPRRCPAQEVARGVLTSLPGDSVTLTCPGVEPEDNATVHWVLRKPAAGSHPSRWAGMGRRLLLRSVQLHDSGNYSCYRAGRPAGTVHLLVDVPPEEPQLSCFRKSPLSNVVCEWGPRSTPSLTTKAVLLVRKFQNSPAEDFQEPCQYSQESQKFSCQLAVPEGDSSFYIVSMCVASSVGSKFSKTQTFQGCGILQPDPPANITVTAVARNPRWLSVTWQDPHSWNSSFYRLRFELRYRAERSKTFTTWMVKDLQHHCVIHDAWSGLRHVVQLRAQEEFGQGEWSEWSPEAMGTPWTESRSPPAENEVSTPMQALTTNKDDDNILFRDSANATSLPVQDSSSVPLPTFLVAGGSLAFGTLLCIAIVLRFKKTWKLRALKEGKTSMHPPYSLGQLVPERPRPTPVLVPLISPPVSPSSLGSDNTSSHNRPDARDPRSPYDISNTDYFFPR

T2: IL-6Rα expressed on lentivirally transduced HEK 293T cells (UniProt P08887 20-468, limits assumed)
T2 construct: whole, on cells; also called IL-6Rα^+ cells; IL-6Rα^+/IL-8R^- HEK 293T cells
T2 sequence (looked up): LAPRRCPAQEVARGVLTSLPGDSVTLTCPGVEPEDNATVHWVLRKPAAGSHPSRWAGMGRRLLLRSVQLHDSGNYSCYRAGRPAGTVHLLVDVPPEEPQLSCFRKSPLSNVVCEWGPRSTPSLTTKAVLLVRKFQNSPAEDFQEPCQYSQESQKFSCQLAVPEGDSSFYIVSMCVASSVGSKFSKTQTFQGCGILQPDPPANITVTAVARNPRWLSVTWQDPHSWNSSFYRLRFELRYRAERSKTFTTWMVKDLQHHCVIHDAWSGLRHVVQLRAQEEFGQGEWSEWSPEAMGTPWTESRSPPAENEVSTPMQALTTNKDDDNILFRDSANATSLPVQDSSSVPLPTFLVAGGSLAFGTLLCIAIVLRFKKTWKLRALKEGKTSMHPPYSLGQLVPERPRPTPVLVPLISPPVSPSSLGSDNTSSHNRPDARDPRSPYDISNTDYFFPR

T3: human IL-6Rα extracellular domain (ECD), residues 89-303 of the mature protein, with C-terminal biotin … (human, UniProt P08887 108-322, biotinylated with BirA ligase on the biotin acceptor peptide)
T3 construct: range 89-303; The range 89-303 counts on the mature protein, not on the precursor; Any linkers between the ECD, BAP and His tag are not described; also called IL-6Rα ECD; recombinant IL-6Rα
T3 sequence: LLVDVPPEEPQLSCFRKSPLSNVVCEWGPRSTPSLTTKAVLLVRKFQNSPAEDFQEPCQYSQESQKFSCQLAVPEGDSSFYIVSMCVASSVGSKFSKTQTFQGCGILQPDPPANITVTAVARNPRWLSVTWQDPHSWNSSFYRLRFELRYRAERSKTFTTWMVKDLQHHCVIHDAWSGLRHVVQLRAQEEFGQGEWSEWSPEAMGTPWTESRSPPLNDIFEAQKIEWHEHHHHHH


Assays:
[1] = target: T1, IL-6R on IL-6-responsive HepG2 cells; test: cell-based or functional assay
[2] = target: T2, IL-6Rα expressed on lentivirally …; test: competition with 100 nM biotinylated IL-6 on IL-6Rα+/IL-8R- HEK 293T cells, flow cytometry
Protocol: IL-6Rα⁺/IL-8R⁻ and IL-6Rα⁻/IL-8R⁺ HEK 293T cells were cultured as previously described, and were trypsinized, resuspended in PBSA, and aliquoted into 96-well plates (2×10⁵ cells per well). IL-6Rα⁺/IL-8R⁻ 293T cells were incubated with titrations of various monoclonal or bispecific antibodies in the presence of saturating concentration of biotinylated IL-6 (100 nM) (Acro Biosystem, cat #: IL6-H8218-25UG) for 2 hr at 4° C. with rotation. Cells were then washed and incubated with 1:200 dilution of Alexa Fluor 647-conjugated streptavidin (Fisher Scientific, cat #: S21374) in PBSA for 15 min at 4° C. After a final wash, cells were resuspended in PBSA and analyzed on a CytoFLEX flow cytometer (Beckman Coulter). Curves were fitted to a first-order logistic model and IC₅₀ values were calculated using GraphPad Prism data analysis software. Mean fluorescence intensity (MFI) of unstimulated cells was subtracted. Similarly, IL-6Rα⁻/IL-8R⁺ 293T cells were incubated with titrations of various monoclonal or bispecific antibodies with saturating concentration of His-tagged IL-8 (400 nM) (Sino Biological, cat #: 10098-H08Y-100) for 2 hr at 4° C. with rotation. […] After a final wash, cells were resuspended in PBSA and analyzed on a CytoFLEX flow cytometer (Beckman Coulter). Curves were fitted to a first-order logistic model and IC₅₀ values were calculated using GraphPad Prism data analysis software. […]

[3] = target: T3, human IL-6Rα extracellular domain …; test: competition: antibody against 300 nM biotinylated IL-6Rα ECD binding to IL-6-displaying yeast, flow cytometry
Protocol: Approximately 1×10⁵ human IL-6-displaying yeast per well were plated in a 96-well plate and washed with PBSA. Yeast cells were incubated with saturating concentrations of biotinylated human IL-6Rα (300 nM) and serial dilutions of unlabeled competitor antibody (either the anti-IL-6R antibody tocilizumab, the anti-IL-8R antibody 10H2, BS1, or BS2) in PBSA for 2 hours at room temperature. Cells were then washed and stained with a 1:200 dilution of Alexa647-conjugated streptavidin (Thermo) in PBSA for 15 min at 4° C. Cells were washed again and assessed for human IL-6Rα binding on a CytoFLEX flow cytometer (Beckman Coulter). Background-subtracted fluorescent signal as a fraction of receptor subunit binding in the absence of competitor antibody was plotted. Curves were fitted to a first order logistic model and half maximal inhibitory concentrations (IC₅₀s) were computed using GraphPad Prism. Assays were performed in triplicate and repeated two times with consistent results.
Tocilizumab is known to compete with IL-6 for IL-6Rα engagement. Thus, bispecific binding agents containing the tocilizumab variable regions (BS1 and BS2) were also expected to obstruct cytokine binding. […] However, tocilizumab (IC₅₀=59 nM), BS1 (IC₅₀=190 nM), and BS2 (IC₅₀=78 nM) all inhibited IL-6/IL-6Rα binding.

| Binder | inhibition of IL-6 signaling (pSTAT3) in HepG2 cells (IC50) [1] | IC50 [2] | IC50 [3] | inhibition of IL-6-induced STAT3 phosphorylation in HepG2 cells (IC50) [1] |
| --- | --- | --- | --- | --- |
| tocilizumab, recombinant monoclonal hIgG1 (anti-IL-6Rα) (antibody, V domains shown, also called anti-IL-6Rα antibody) VH: EVQLQESGPGLVRPSQTLSLTCTVSGYSITSDHAWSWVRQPPGRGLEWIGYISYSGITTYNPSLKSRVTMLRDTSKNQFSLRLSSVTAADTAVYYCARSLARTTAMDYWGQGSLVTVSS VL: DIQMTQSPSSLSASVGDRVTITCRASQDISSYLNWYQQKPGKAPKLLIYYTSRLHSGVPSRFSGSGSGTDFTFTISSLQPEDIATYYCQQGNTLPYTFGQGTKVEIK | 76 nM | 30 nM | 59 nM |  |
| BS2 bispecific antibody (scFv-IgG fusion: 10H2 IgG with tocilizumab scFv on the light chains) (bispecific antibody, Human IgG1-based) heavy: not shown light: AGSQAVVTQESALTTSPGETVTLTCRSSTGAVTTSNYANWVQEKPDHLFTGLIGGTNNRPPGVPARFSGSLIGDKAALTITGAQIEDEAIYFCALWYSNHLVFGGGTKLTVLRTVAAPSVFIFPPSDEQLKSGTASVVCLLNNFYPREAKVQWKVDNALQSGNSQESVTEQDSKDSTYSLSSTLTLSKADYEKHKVYACEVTHQGLSSPVTKSFNRGECGGGGSGGGGSEVQLQESGPGLVRPSQTLSLTCTVSGYSITSDHAWSWVRQPPGRGLEWIGYISYSGITTYNPSLKSRVTMLRDTSKNQFSLRLSSVTAADTAVYYCARSLARTTAMDYWGQGSLVTVSSGGGGSGGGGSGGGGSDIQMTQSPSSLSASVGDRVTITCRASQDISSYLNWYQQKPGKAPKLLIYYTSRLHSGVPSRFSGSGSGTDFTFTISSLQPEDIATYYCQQGNTLPYTFGQGTKVEIK |  | 96 nM | 78 nM | 220 nM |
